Measured values from patent US20100015126A1, “Methods of Binding of Cross-Beta Structures By Chaperones” (priority 2006, published 2010).

How the values were obtained:
[1] = Transmission electron microscopy (TEM); assay type: physicochemical; conditions: 2.5 mg/ml peptide stocks
Experimental: Transmission Electron Microscopy (TEM)
TEM images were collected using a Jeol 1200 EX transmission electron microscope (Jeol Ltd., Tokyo, Japan) at an excitation voltage of 80 kV. For each sample, the formvar and carbon-coated side of a 100-mesh copper or nickel grid was positioned on a 5 μl drop of protein solution for 5 minutes. Afterwards, it was positioned on a 100 μl drop of PBS for 2 minutes, followed by three 2-minute incubations with a 100 μl drop of distilled water. The grids were then stained for 2 minutes with a 100 μl drop of 2% (m/v) methylcellulose with 0.4% uranyl acetate pH 4. Excess fluid was removed by streaking the side of the grids over filter paper, and the grids were subsequently dried under a lamp. Samples were analysed at a magnification of 10K.

human BiP [2] = molecular target: T1, human BiP (Homo sapiens, UniProt P11021); assay: ELISA: binding of BiP-FLAG-His to immobilized (misfolded) protein ligands; conditions: ligands coated at 5 μg/ml; 6BB peptides and oxLDL 50 μg/ml
T1 construct: The human BiP gene except the signal peptide encoding region was obtained from Geneart (Germany); linker […]; made in house; host or cells: HEK 293E cells, transient transfection, PABC674 vector; secreted into the medium
T1 sequence (P11021 19-654): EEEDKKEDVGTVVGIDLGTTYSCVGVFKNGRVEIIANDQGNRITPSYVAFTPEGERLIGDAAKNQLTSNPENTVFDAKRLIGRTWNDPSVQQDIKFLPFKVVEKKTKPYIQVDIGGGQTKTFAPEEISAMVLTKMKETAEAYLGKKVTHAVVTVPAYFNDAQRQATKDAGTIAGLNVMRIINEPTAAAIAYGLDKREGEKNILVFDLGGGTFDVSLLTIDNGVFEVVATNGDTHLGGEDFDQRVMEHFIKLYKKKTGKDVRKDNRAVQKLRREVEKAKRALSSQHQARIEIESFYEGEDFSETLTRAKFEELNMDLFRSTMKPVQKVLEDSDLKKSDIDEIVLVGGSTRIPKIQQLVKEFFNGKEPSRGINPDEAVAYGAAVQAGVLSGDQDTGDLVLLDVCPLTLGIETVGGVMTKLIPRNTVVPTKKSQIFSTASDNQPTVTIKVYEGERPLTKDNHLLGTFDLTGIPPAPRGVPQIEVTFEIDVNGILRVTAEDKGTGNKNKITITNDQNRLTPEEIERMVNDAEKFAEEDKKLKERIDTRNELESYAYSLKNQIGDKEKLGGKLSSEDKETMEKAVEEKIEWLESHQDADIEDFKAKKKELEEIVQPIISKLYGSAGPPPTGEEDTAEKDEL
Experimental: Enzyme Linked Immunosorbent Assay for Testing of Chaperone Binding to Misfolded Proteins
(§1) Binding of chaperones to immobilized (misfolded) protein ligands was determined using an enzyme linked immuno sorbent assay (ELISA) approach. For this purpose 50 μl/well of potential ligands at indicated concentrations or coat buffer only for control and background measurement purposes, were coated overnight at 4° C. or coated for 1 h at room temperature, with motion, in 50 mM NaHCO3 pH 9.6 (coat buffer). In general, ligands were coated at 5 μg/ml, unless stated otherwise. For example, BiP binding peptides 6BB# and oxLDL were coated at 50 μg/ml. Native haemoglobin (Sigma-Aldrich, H7379), albumin, IgIV Gammagard and ovalbumin controls were prepared from lyophilized stocks. The controls were prepared by dissolving lyophilized proteins at 1 mg/ml in PBS upon resuspending by pipetting, followed by a 30 minutes period at the roller device, at room temperature. The protein solutions were centrifuged for 10 minutes at 16,000*g and diluted in coat buffer. After coating the plates were washed at least three times with 50 mM Tris-HCl pH 7.3, 150 mM NaCl, 0.1% v/v Tween20, and blocked with Blocking reagent (Roche Diagnostics, Almere, The Netherlands; 11112589001), for 1 h at room temperature, with motion. Plates were washed three times and incubated in triplicate with indicated chaperone dilution series, at 50 μl/well, for 1 h at room temperature, with constant motion. For HSP90, 5 mM DTT is incorporated in the binding buffer (PBS/0.1% Tween20) to avoid unwanted disulfide bond formation of the HSP90. Plates were washed three times and incubated with anti-FLAG antibody (mouse antibody, M2, peroxidase conjugate; Sigma, A-8592) for BiP-FLAG-His, anti-His-tag antibody (Mouse Monoclonal Antibody, Cat. No. 70796, Novagen [0.2 mg/ml]) for HSP60, a 1:1 mix of 500-fold diluted anti-HSP90beta antibodies (Stressgen, SPA-643 [mouse monoclonal IgM], SPA-646 [rabbit polyclonal]) for HSP90 and an anti-DnaK antibody (Stressgen, 023SPA-880D [mouse monoclonal antibody]) for DnaK. After four wash cycles, secondary antibodies were added to the wells when required, 50 μl/well, for 45′ at room temperature, with motion. RAMPO and SWARPO were used at 3000 times dilution. […] In a second experiment with more immobilized misfolded proteins and controls, the detection of bound HSP90 with the mix of two anti-HSP90 antibodies was achieved by mixing 1:1500 SWARPO with 1:3000 RAMPO. After 5 washes with wash buffer followed by two washes with PBS, binding of antibodies was assessed. Bound anti-FLAG-PO, peroxidase-conjugated rabbit anti-mouse immunoglobulins (RAMPO, P0260, DAKOCytomation, Glostrup, Denmark) or peroxidase-coupled swine anti-rabbit immunoglobulins (SWARPO, P0217, DAKOCytomation) was visualized with tetramethylbenzidine (TMB, #45.01.20,/#45.014.01, Biosource, Nivelles, Belgium). The reaction was stopped after 5 minutes with 1% H2SO4 in H2O. Plates were read at 450 nm. Triplicates were averaged and standard deviations calculated. Background signals obtained with buffer-coated wells were subtracted (binding of primary antibody to empty wells), as well as background signals obtained with ligand-coated wells in which the chaperones were omitted (binding of primary and secondary antibody to coated ligands). Subsequently, sub-optimal concentrations of chaperones for binding to misfolded protein ligands are determined, and these concentrations are used for inhibition studies. […] We have previously identified that a sub-fraction of IgIV molecules has affinity for misfolded proteins comprising crossbeta structure (pending patent application). Moreover, we identified that the sub-fraction of IgIV molecules directly binds to crossbeta structure and/or crossbeta structure induced conformation (not shown; pending patent application). […]

human BiP [3] = molecular target: T1, human BiP; assay: Competition ELISA: BiP binding to misfolded proteins under influence of crossbeta binding compounds; conditions: fixed sub-optimal BiP concentration
Experimental: Binding of chaperones to immobilized (misfolded) protein ligands was determined using an enzyme linked immuno sorbent assay (ELISA) approach. For this purpose 50 μl/well of potential ligands at indicated concentrations or coat buffer only for control and background measurement purposes, were coated overnight at 4° C. or coated for 1 h at room temperature, with motion, in 50 mM NaHCO3 pH 9.6 (coat buffer). In general, ligands were coated at 5 μg/ml, unless stated otherwise. For example, BiP binding peptides 6BB# and oxLDL were coated at 50 μg/ml. Native haemoglobin (Sigma-Aldrich, H7379), albumin, IgIV Gammagard and ovalbumin controls were prepared from lyophilized stocks. The controls were prepared by dissolving lyophilized proteins at 1 mg/ml in PBS upon resuspending by pipetting, followed by a 30 minutes period at the roller device, at room temperature. The protein solutions were centrifuged for 10 minutes at 16,000*g and diluted in coat buffer. After coating the plates were washed at least three times with 50 mM Tris-HCl pH 7.3, 150 mM NaCl, 0.1% v/v Tween20, and blocked with Blocking reagent (Roche Diagnostics, Almere, The Netherlands; 11112589001), for 1 h at room temperature, with motion. Plates were washed three times and incubated in triplicate with indicated chaperone dilution series, at 50 μl/well, for 1 h at room temperature, with constant motion. For HSP90, 5 mM DTT is incorporated in the binding buffer (PBS/0.1% Tween20) to avoid unwanted disulfide bond formation of the HSP90. […] After four wash cycles, secondary antibodies were added to the wells when required, 50 μl/well, for 45′ at room temperature, with motion. RAMPO and SWARPO were used at 3000 times dilution. […] In a second experiment with more immobilized misfolded proteins and controls, the detection of bound HSP90 with the mix of two anti-HSP90 antibodies was achieved by mixing 1:1500 SWARPO with 1:3000 RAMPO. After 5 washes with wash buffer followed by two washes with PBS, binding of antibodies was assessed. Bound anti-FLAG-PO, peroxidase-conjugated rabbit anti-mouse immunoglobulins (RAMPO, P0260, DAKOCytomation, Glostrup, Denmark) or peroxidase-coupled swine anti-rabbit immunoglobulins (SWARPO, P0217, DAKOCytomation) was visualized with tetramethylbenzidine (TMB, #45.01.20,/#45.014.01, Biosource, Nivelles, Belgium). The reaction was stopped after 5 minutes with 1% H2SO4 in H2O. Plates were read at 450 nm. Triplicates were averaged and standard deviations calculated. Background signals obtained with buffer-coated wells were subtracted (binding of primary antibody to empty wells), as well as background signals obtained with ligand-coated wells in which the chaperones were omitted (binding of primary and secondary antibody to coated ligands). Subsequently, sub-optimal concentrations of chaperones for binding to misfolded protein ligands are determined, and these concentrations are used for inhibition studies.
In a subsequent study we analysed whether BiP interacts directly with the crossbeta structure, by performing ELISA binding studies with a fixed sub-optimal concentration of BiP and concentration series of crossbeta binding compounds. The results are depicted in FIGS. 12, 13 and Table 7. Binding of BiP without added crossbeta binding compounds was set to 100%.

[4] = molecular target: T2, Escherichia coli HSP70 family member DnaK (Escherichia coli, UniProt P0A6Y8); assay: ELISA: binding of DnaK to immobilized (misfolded) protein ligands
T2 construct: purchased Stressgen (Ann Arbor, Mich., USA) SPP-630
T2 sequence (P0A6Y8 whole entry): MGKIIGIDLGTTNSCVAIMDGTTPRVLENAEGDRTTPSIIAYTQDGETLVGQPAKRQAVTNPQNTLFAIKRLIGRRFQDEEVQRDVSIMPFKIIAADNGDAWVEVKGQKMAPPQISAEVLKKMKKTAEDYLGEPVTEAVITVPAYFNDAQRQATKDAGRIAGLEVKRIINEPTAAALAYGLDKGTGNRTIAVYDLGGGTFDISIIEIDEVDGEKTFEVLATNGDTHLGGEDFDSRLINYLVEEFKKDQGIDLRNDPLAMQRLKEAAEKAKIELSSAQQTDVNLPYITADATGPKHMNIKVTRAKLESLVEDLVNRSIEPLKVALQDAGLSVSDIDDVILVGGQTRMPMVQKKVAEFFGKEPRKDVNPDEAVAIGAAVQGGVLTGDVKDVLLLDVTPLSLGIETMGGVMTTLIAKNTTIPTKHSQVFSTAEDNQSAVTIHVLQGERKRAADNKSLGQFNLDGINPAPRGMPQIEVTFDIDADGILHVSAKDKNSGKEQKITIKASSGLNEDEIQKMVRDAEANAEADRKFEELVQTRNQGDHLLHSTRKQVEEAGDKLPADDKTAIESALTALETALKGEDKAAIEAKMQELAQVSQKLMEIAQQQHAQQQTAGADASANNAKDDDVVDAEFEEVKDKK
Experimental: Recombinant Escherichia coli (E. coli) DnaK was purchased from Stressgen (Ann Arbor, Mich., USA; SPP-630). For the binding studies first lot B502468 (100 μg, lot A) and then lot 05240609 (200 μg, lot B) was used.
as §1

human BiP [5] = molecular target: T1, human BiP; assay: ELISA: binding of BiP in cell culture supernatant to immobilized misfolded proteins; conditions: undiluted supernatant of 293E cells overexpressing BiP; ligands coated at 5 μg/ml, Aβ 20 μg/ml
Experimental: Binding of BiP to Misfolded Proteins with Crossbeta Structure
Proteins at 5 μg/ml were coated for 1 h at room temperature with agitation, in Microlon high-binding ELISA plates (Greiner) in 50 mM NaHCO3 pH 9.6, except for Aβ that was coated at 20 μg/ml. Buffer was coated as negative control. A twofold dilutions series of cell culture supernatant of HEK 293E cells overexpressing BiP was also coated to the plate for anti-FLAG-tag antibody control purposes. Plates were washed and blocked with ½*Blocking reagent (Roche). Undiluted cell culture supernatant enriched with 0.1% Tween20 was added to the wells with immobilized protein ligands and incubated for 1 h at room temperature with agitation. Medium was discarded and the plate was washed with PBS with 0.1% v/v Tween20. Mouse monoclonal anti-FLAG-tag antibody (Sigma, A8592, anti-FLAG M2PO conjugate) was diluted 1000× in PBS/0.1% Tween20 and added to all wells, including those that are coated with cell culture supernatant. After a 1 h incubation at room temperature with agitation and after washing, wells were overlayed with 3000× diluted RAMPO (DAKOCytomation) in PBS/0.1% Tween20. After 30 minutes the plate was washed and bound peroxidase was visualised with tetramethylbenzidine (TMB, #45.103.20/#45.014.01, Biosource, Nivelles, Belgium). The reaction was stopped after 5 minutes with 10% H2SO4 in H2O. Plates were read at 450 nm.

| Substance | TEM [1] | Binding of concentration series of BiP to coated ligand (human BiP [2]) | Influence of Congo red on interaction of BiP with misfolded protein (human BiP [3]; concentration series of Congo red) | Influence of ThS on interaction of BiP with misfolded protein (human BiP [3]; concentration series of ThS) | Influence of ThT on interaction of BiP with misfolded protein (human BiP [3]; concentration series of ThT) | Binding of concentration series of DnaK to coated ligand [4] | Binding of BiP to immobilized protein (ELISA) (human BiP [5]) |
| --- | --- | --- | --- | --- | --- | --- | --- |
| HWDFAWPW [6BB10] | Nothing visible^† | has been established | ↓ (a ↓ sign refers to inhibited abolished binding of BiP) | ↓ (a ↓ sign refers to inhibited abolished binding of BiP) | ↓ (a ↓ sign refers to inhibited abolished binding of BiP) | did not bind |  |
| d-lysozyme: heat-denatured hen egg-white lysozyme |  |  |  |  |  |  | more pronounced |
